According to publication PMC3605151, “The Common Structural Architecture of Shigella flexneri and Salmonella typhimurium Type Three Secretion Needles” (PLoS Pathogens, 2013):

Biological target: the molecule itself
Assay: in vitro polymerisation into needles, seen by transmission electron microscopy and solid-state NMR; purified subunit polymerised at 0.2 mM, 37°C, sixteen days; needles ultra-centrifuged for magic-angle spinning solid-state NMR at 5.5°C

B1: MxiH, wild-type Shigella flexneri T3SS needle subunit (recombinant, His tag cleaved) (natural protein)
chain: GHMSVTVPDKDWTLSSLSETFDDGTQTLQGQLTSALNALAENPSNPQLLAEYQSKLSEYTLYRNAQSNTVKVIKDVDAAIIQNFR
modifications: 15N and 13C isotope labelling
notes: non-native N-terminal residues glycine and histidine left after cleavage by tobacco etch virus protease (told in words); MxiH, T3SS needle subunit, Shigella flexneri serotype 6, residues Met1 to R83; Helical homopolymer (needle); also called WT MxiH; WT Shigella T3SS needles; source: polymerized in vitro; not shown: hepta-Histidine (His) tag, N-terminal, cleaved
binding result: binds
